The assay concerns the target KpBest^ΔC11 L177T (Klebsiella pneumoniae). The experiment in a line: crystal structure; KpBest^ΔC11 L177T, sitting-drop vapor diffusion at 20°C, 0.05 M zinc acetate, 6% ethylene glycol, 0.1 M sodium cacodylate pH 6.0, 6.6% PEG 8000; solved to 3.1 Å by molecular replacement with 4WD8.

From PMC5655127 come the findings set out here.

As a reminder, the stoichiometry N is a count of units in the complex or per binding partner.

KpBest^ΔC11 L177T (natural protein) gave a stoichiometry N of 5.
